Measured values from patent US5064430A, “Polynonapeptide bioelastomers having an increased elastic modulus” (UAB Research Foundation, priority 1989, dated 1991).
Where two headings read alike, the source gives them in different places. Ends that are not written are not given here.

What was measured:
[1] = Thermoelasticity studies (elastomeric force as a function of temperature); assay type: physicochemical; settings: γ-irradiation cross-linked (20 Mrad), fixed extension (40%), in water
Experimental: Thermoelasticity studies were carried out on a stress-stain instrument built in this Laboratory. The sample is mounted in two Delrin clamps. The top clamp is attached to a Statham UTC strain-gauge and the assembly is fixed. The bottom clamp is attached to a moving platform driven by a variable speed motor. Both clamps are enclosed in a thermostated water jacket. An inner chamber contains the solvent in which the elastomer is immersed which in this case is doubly distilled water. The sample was fixed in the top clamp and equilibrated in water at 60° C. for about an hour. The strain-gauge signal conditioner was balanced for zero force and the bottom clamp was attached to the sample. The sample was left to set overnight at room temperature. The bottom clamp was then adjusted for zero force and the distance between the clamps was measured. The elastomer was elongated to 40% extension at 5° C. and elastomeric force was then determined as a function of temperature. Equilibrium time to achieve constant force at a given temperature was typically twenty-four hours. Force measurements were made in 2° C. increments through the sharp rise in force and 5° C. increments at higher temperatures.
Thermoelasticity studies were carried out on a stress-strain apparatus. Clamping of the sample in the holder was done in two stages to prevent damage to the material at the clamp edge. The sample was first gripped lightly with the top clamp, raised to 60° C. while submerged in water within the temperature jacket and allowed to equilibrate for about 2 hours. The measured force consisting of the weight of the sample and grips in water were set to zero. The bottom grip was then attached to the sample and both grips tightened to hold the sample firmly. The bottom clamp was driven as in a stress-strain measurement and stopped at 40% elongation. Force data were recorded in 5° C. steps starting at 70° C. and continuing to 40° C. where the force approached zero.

[2] = Temperature profiles of turbidity formation / coacervation (light scattering at 300 nm); assay type: physicochemical; settings: for onset of aggregation (coacervation): high molecular weight polymer in water; for midpoint of the temperature profile of turbidity formation / coacervation: 40 mg/ml (high concentration limit)
Experimental: FIG. 3 illustrates temperature profiles of turbidity (TP.tau.) data for poly(VPGFGVGAG) at 40 mg/ml and 1 mg/ml concentrations in H2 O. The aggregational process was monitored by measuring light scattering at 300 nm as a function of temperature using a Cary 14 recording spectrophotometer.
The temperature dependence for aggregation of the polypentapeptide is followed as the development of turbidity at 300 nm using a Cary 14 spectrophotometer. The sample cell is placed within a chamber vibrating at 300 Hz in order to facilitate equilibrium and to keep the aggregates from settling. The scan rate is 30° C./hour and the temperature was controlled with a Neslab ETP-3 programmer and monitored with an Omega 199A thermocouple monitor placed at the cell. The turbidity as a function of temperature provides a temperature profile for coacervation which is found to be concentration dependent. As the concentration is raised, the profile shifts to lower temperatures until further increases in concentration cause no further lowering of the temperature for aggregation. This defines the high concentration limit. The temperature for the onset of coacervation at the high concentration limit coincides with the temperature for the onset of the transition within the coacervate itself, even when there is no appreciable change in water content of the coacervate. […] When the midpoint is 25° C. for the PPP, the molecular weight is close to 100,000 daltons as calibrated by dialysis. For the Ile^1 -PPP with a midpoint of 9° C., the molecular weight is greater than 50,000 daltons, as the synthetic polypeptide was retained by a 50,000 daltons dialysis membrane. The dialysis was carried out at 4° C. where the Ilel-PPP is in solution.
Polypeptide coacervation in water is reversible aggregation to form a new phase with a distinct composition. Association occurs on raising the temperature, disassociation on lowering the temperature. The process of coacervation was followed by monitoring the turbidity as a function of temperature using a Cary 14 spectrophotometer set at 300 nm, a Neslab ETP-3 temperature programmer with a 30° C./hour scan rate and an Omega 199A thermocouple monitor. The sample cell was placed in a vibrating chamber (300 Hz) to keep the aggregates from settling and to facilitate equilibrium. The temperature profiles for coacervation are concentration dependent. Dilution from a high concentration, after the high concentration limit is reached (approximately 40 mg/ml for high molecular weight elastomeric polypeptides), results in a shift of the turbidity profile to higher temperature.

[3] = high molecular weight, cross-linked by γ-irradiation (background); cited from earlier work
[4] = Solubility in water as a function of temperature; assay type: physicochemical
[5] = system: fibroblasts; test: Checkerboard assay of Zigmond and Hirsch (chemotaxis) with fibroblasts; assay type: cell-based
Source text: The chemotaxis of the present polynonapeptide towards fibroblasts and endothelial cells can be determined and verified by the well known checkerboard assay of Zigmond and Hirsch. […] Checkerboard analysis of AGVPGFGVG and GFGVGAGVP sequences with fibroblasts using the procedure as described above afforded the following results which are represented graphically in Tables I and II.

[6] = Stress/strain studies of γ-irradiation cross-linked matrices (elastic modulus); assay type: physicochemical; settings: 25 Mrad cross-linking dose

Substance: (Val-Pro-Gly-Val-Gly)n (VPGVG; also: polymer of repeating pentamer, (VPGVG)n) [PPP, reference compound]
- temperature of essentially full elastic contraction / maximal elastomeric force [1]: 40 °C
- onset of aggregation (coacervation) [2]: 24 °C
- midpoint of the temperature profile of turbidity formation / coacervation ([2]; in water): 25 °C
- elastic modulus [3]: ~10^6 dynes/cm^2

Substance: H-(Gly-Gly-Val-Pro)n -OH (H-GGVP-OH; also: repeated n times (polymer)) [PTP]
- temperature of essentially full elastic contraction / maximal elastomeric force [1]: ~70 °C
- temperature below which soluble in water [4]: below 40 °C
- onset of aggregation (coacervation) [2]: 48 °C
- midpoint of the temperature profile of turbidity formation / coacervation ([2]; in water): 49 °C

Substance: H-(Gly-Val-Gly-Ile-Pro)n -OH (H-GVGIP-OH; also: polymer, (GVGIP) repeated n times) [Ile^1 -PPP]
- temperature of essentially full elastic contraction / maximal elastomeric force [1]: about 25 °C
- temperature below which soluble in water [4]: below 8 °C
- onset of aggregation (coacervation) [2]: ~8 °C
- midpoint of the temperature profile of turbidity formation / coacervation ([2]; in water): 9 °C

Substance: PDGF
- Checkerboard analysis with fibroblasts, positive control ([5]; PDGF at 30 μg/ml (Table II experiment)): 59
- Checkerboard analysis with fibroblasts, positive control ([5]; PDGF at 60 μg/ml (Table I experiment)): 21

Substance: Poly[Ala-Gly-Val-Pro-Gly-Phe-Gly-Val-Gly]-OH [poly(VPGFGVGAG)]
- elastic modulus [6]: 10^8 dynes/cm^2
- temperature below which soluble in water [4]: below 5 °C
- midpoint of the temperature profile of turbidity formation ([2]; in water, 1 mg/ml): about 11 °C
- midpoint of the temperature profile of turbidity formation / coacervation ([2]; in water): about 8 °C
